Publication PMC9890960, “Exploiting photosynthesis-driven P450 activity to produce indican in tobacco chloroplasts” (Frontiers in Plant Science, 2023)

B1: IsiB^6803 (natural protein)
chain: MTKIGLFYGTQTGNTETIAELIQKEMGGDSVVDMMDISQADVDDFRQYSCLIIGCPTWNVGELQSDWEGFYDQLDEIDFNGKKVAYFGAGDQVGYADNFQDAMGILEEKISGLGGKTVGFWPTAGYDFDESKAVKNGKFVGLALDEDNQPELTELRVKTWVSEIKPILQS
B2: HsCPR^62-241 (domain or fragment)
chain: SSVRESSFVEKMKKTGRNIIVFYGSQTGTAEEFANRLSKDAHRYGMRGMSADPEEYDLADLSSLPEIDNALVVFCMATYGEGDPTDNAQDFYDWLQETDVDLSGVKFAVFGLGNKTYEHFNAMGKYVDKRLEQLGAQRIFELGLGDDDGNLEEDFITWREQFWPAVCEHFGVEATGEESS

Key:
HsCPR^62-241 = biological target: T1, HsCPR^62-241 (Homo sapiens, UniProt P16435); assay: isothermal titration calorimetry; type: binding; conditions: read-out: affinities
T1 construct: gene POR; soluble flavodoxin-like (FMN) domain, residues 62-241, pET14b, E. coli BL21(DE3), HisTrap purified; apoprotein for ITC
T1 sequence (P16435 62-241): B2 chain

IsiB^6803 = biological target: T2, IsiB^6803 (Synechocystis sp. PCC 6803, UniProt P27319); assay: isothermal titration calorimetry; type: binding; conditions: read-out: affinities
T2 construct: gene from colony PCR, pET14b, E. coli BL21(DE3), HisTrap purified; apoprotein for ITC
T2 sequence (P27319 1-170): B1 chain

CYP2A6 = biological target: T3, CYP2A6 (Homo sapiens, UniProt P11509); assay: indican formation in infiltrated N. benthamiana leaves, LC-MS; conditions: co-expressed with tnaA; chloroplast-targeted; product glucosylated to indican
T3 construct: N-terminal Arabidopsis Fd2 transit peptide fusion; transient expression in Nicotiana benthamiana chloroplasts; amplified from E. coli expression construct
T3 sequence (P11509 1-494): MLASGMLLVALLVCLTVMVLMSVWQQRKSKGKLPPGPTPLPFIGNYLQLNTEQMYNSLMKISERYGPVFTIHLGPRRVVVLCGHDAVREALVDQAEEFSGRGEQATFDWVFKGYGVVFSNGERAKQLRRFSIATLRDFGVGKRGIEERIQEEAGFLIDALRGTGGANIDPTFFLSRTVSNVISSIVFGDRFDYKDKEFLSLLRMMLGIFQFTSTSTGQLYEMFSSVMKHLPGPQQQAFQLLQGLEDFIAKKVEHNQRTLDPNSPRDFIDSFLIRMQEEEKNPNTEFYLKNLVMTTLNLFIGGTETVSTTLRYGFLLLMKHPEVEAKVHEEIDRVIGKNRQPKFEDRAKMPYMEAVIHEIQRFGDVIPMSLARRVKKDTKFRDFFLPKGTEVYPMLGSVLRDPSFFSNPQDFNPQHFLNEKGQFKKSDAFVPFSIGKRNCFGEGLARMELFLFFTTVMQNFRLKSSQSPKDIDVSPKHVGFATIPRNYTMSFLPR

CYP2E1 = biological target: T4, CYP2E1 (Homo sapiens, UniProt P05181); assay: as above; conditions: co-expressed with tnaA; chloroplast-targeted; product glucosylated to indican
T4 construct: N-terminal Arabidopsis Fd2 transit peptide fusion; transient expression in Nicotiana benthamiana chloroplasts; amplified from E. coli expression construct

tnaA = biological target: T5, tnaA (Escherichia coli, UniProt P0A853); assay: indole accumulation in infiltrated N. benthamiana leaves, UPLC-UV; parameters: species or system Nicotiana benthamiana leaves; conditions: chloroplast-targeted; endogenous tryptophan
T5 construct: synthetic gene, N-terminal chloroplast transit peptide (Arabidopsis Fd2); transient expression in Nicotiana benthamiana chloroplasts

spinach FNR (spinach) [1] = biological target: T6, spinach FNR (spinach) (UniProt P00455)
T6 sequence: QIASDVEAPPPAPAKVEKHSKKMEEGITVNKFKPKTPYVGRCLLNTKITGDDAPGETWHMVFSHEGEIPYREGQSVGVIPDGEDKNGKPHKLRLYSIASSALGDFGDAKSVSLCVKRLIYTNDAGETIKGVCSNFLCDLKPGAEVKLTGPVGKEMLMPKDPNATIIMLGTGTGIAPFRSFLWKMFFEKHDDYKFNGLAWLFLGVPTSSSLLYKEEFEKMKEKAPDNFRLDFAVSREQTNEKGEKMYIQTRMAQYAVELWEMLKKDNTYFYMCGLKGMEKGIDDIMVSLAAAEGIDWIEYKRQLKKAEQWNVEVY

spinach FNR (spinach) [2] = biological target: T6, spinach FNR (spinach); remark: listed apart in the source

T5 sequence (P0A853 whole entry): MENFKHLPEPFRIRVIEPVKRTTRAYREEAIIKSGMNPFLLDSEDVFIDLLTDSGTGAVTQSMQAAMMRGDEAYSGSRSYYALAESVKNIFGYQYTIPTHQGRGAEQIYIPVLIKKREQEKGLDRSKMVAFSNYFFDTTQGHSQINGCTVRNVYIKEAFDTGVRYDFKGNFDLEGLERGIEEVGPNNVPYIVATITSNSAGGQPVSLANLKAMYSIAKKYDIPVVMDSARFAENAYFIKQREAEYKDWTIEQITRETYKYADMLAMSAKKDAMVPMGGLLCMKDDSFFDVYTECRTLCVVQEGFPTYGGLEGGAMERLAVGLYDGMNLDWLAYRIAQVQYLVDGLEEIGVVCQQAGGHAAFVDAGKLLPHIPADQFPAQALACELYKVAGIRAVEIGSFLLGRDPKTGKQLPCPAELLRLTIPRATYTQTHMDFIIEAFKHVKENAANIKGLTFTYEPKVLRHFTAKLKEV
T4 sequence (P05181 whole entry, the tested form may be a part): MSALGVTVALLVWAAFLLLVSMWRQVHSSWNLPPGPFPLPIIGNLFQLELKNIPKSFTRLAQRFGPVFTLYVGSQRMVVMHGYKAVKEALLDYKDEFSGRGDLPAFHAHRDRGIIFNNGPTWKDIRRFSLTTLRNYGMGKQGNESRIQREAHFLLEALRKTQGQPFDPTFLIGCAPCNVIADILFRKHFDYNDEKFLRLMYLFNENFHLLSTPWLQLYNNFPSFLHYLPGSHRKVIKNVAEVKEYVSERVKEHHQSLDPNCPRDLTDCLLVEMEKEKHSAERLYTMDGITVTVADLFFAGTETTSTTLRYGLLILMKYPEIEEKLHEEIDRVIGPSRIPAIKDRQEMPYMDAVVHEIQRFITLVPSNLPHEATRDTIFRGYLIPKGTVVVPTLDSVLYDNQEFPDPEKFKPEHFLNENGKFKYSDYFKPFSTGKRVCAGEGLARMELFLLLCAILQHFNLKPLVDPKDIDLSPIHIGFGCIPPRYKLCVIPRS

Row | Molecule | KM of the electron carrier in NADPH-dependent reduction by FNR (40 nM spinach FNR, carrier 1-100 µM, read by cytochrome c reduction, Michaelis-Menten fit) (spinach FNR (spinach) [1]) | Vmax of NADPH-dependent reduction of the electron carrier by FNR (40 nM spinach FNR, carrier 1-100 µM, read by cytochrome c reduction, Michaelis-Menten fit) (µmol cyt c µmol FNR^-1 s^-1) (spinach FNR (spinach) [1]) | Vmax/KM of NADPH-dependent reduction of the electron carrier by FNR (spinach FNR (spinach) [2]) | further results
1 | Cc1cc2nc3c(=O)[nH]c(=O)nc-3n(C[C@H](O)[C@H](O)[C@H](O)COP(=O)(O)O)c2cc1C [FMN] |  |  |  | Kd (HsCPR^62-241): 25.7 nM; Kd (IsiB^6803): 2 nM
2 | c1ccc2[nH]ccc2c1 [indole] |  |  |  | indican formation in infiltrated N. benthamiana leaves, LC-MS (CYP2A6): accumulation was considerably higher when any P450 was co-expressed with tnaA; indican formation in infiltrated N. benthamiana leaves, LC-MS (CYP2E1): accumulation was considerably higher when any P450 was co-expressed with tnaA
3 | N[C@@H](Cc1c[nH]c2ccccc12)C(=O)O [tryptophan] |  |  |  | indole accumulation in infiltrated N. benthamiana leaves, UPLC-UV (tnaA): Expression of tnaA alone led to detectable indole accumulation in leaf samples
4 | AtFd1 (from UniProt O04090 53-148) (natural protein) | 21.7 µM | 118 | 5.4 | decrease of light-driven coumarin 7-hydroxylation by CYP2A B49 in thylakoids (10 µM redox partner) on adding 0.6 µM FNR and 1.6 mM NADP+ (spinach FNR (spinach) [2]): 80%
5 | B1 | 17.7 µM | 10 |  | 
6 | B2 | 9.2 µM | 125 | 13.6 | 
